Data reported in paper PMC9547286, “LOXL2-dependent deacetylation of aldolase A induces metabolic reprogramming and tumor progression^☆” (Redox Biology, 2022).

Biological target: T1, LOXL2-Flag (human, UniProt Q9Y4K0 26-774)
T1 construct: Lysyl oxidase-like 2 (LOXL2), human, full-length form (774 aa by the printed limits of its C-terminal domain); also called Flag-tagged LOXL2; source: HEK293T, transfected, immunopurified
T1 sequence (looked up): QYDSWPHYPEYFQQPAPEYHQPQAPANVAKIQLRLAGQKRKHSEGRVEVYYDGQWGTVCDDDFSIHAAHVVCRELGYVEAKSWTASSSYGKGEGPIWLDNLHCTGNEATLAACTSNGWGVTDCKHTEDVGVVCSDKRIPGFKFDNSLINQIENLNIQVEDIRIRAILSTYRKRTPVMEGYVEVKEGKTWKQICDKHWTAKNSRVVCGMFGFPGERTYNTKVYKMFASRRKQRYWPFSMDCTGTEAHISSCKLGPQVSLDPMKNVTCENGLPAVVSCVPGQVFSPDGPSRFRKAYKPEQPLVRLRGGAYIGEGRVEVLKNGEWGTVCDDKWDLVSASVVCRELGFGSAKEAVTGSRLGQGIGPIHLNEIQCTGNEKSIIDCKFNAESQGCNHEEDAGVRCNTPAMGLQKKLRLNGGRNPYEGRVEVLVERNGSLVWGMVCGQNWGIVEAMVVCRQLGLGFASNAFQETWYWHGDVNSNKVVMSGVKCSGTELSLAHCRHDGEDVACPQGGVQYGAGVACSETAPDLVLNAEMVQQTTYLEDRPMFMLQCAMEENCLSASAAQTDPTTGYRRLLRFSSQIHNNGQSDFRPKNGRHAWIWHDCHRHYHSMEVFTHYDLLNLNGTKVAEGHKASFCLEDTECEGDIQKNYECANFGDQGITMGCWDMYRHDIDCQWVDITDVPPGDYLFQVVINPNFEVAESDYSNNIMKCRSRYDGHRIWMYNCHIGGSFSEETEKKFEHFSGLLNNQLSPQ
Assay: pull-down; Purified GST-aldolase A or GST from bacteria on glutathione resins, incubated with immunopurified LOXL2-Flag or L2Δ13-Flag from HEK293T at 4 °C for 2 h; immunoblot with anti-Flag
Conditions: both partners purified

binding result: binds
B1: GST-aldolase A (enzyme, human)
chain: PYQYPALTPEQKKELSDIAHRIVAPGKGILAADESTGSIAKRLQSIGTENTEENRRFYRQLLLTADDRVNPCIGGVILFHETLYQKADDGRPFPQVIKSKGGVVGIKVDKGVVPLAGTNGETTTQGLDGLSERCAQYKKDGADFAKWRCVLKIGEHTPSALAIMENANVLARYASICQQNGIVPIVEPEILPDGDHDLKRCQYVTEKVLAAVYKALSDHHIYLEGTLLKPNMVTPGHACTQKFSHEEIAMATVTALRRTVPPAVTGITFLSGGQSEEEASINLNAINKCPLLKPWALTFSYGRALQASALKAWGGKKENLKAAQEEYVKRALANSLACQGKYTPSGQAGAAASESLFVSNHAY
notes: Aldolase A (fructose-bisphosphate aldolase A), human; also called GST-tagged aldolase A; GST-Aldolase A fusion protein; source: bacteria, purified recombinant, retained on glutathione resins
